Consider 83 variants from the RNAGym collection of RNA variant scans (doi:10.1073/pnas.2313332121).

First the molecules themselves.
B1: TPR 5TU (parent)
chain: GGAUCUUCUCGAUCUAACAAAAAAGACAAAUCUGCCACAAAGCUUGAGAGCAUCUUCGGAUGCAGAGGCGGCAGCCUUCGGUGGCGCGAUAGCGCCAACGUUCUCAACUAUGACACGCAAAACGCGUGCUCCGUUGAAUGGAGUUUAUCAUG

Fewer inactive variants are shown than the library holds.

The variants in the data set derive from B1. Kind of data set: polymerase ribozyme fitness, log enrichment relative to wild type (log ratio); higher = more active; in vitro selection for triplet polymerase activity. In short, it runs like this: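 A single round of triplicate in vitro selection, including frozen incubation at −7 °C, was applied to PCR-built, transcribed mutant libraries of each subunit of a heterodimeric triplet polymerase ribozyme. Illumina sequencing of input and output libraries retained genotypes with ≥10 input reads and ≥1 read per output. Fitness is the base-2 logarithm of genotype enrichment divided by wild-type enrichment, from inverse-variance-weighted replicate averages.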
Consider A40C G84A U90G G100C, for which the “polymerase ribozyme fitness (log ratio)” value was no more than -4.2.
As to C54U A91G G128U C131U, the “polymerase ribozyme fitness (log ratio)” value was -3.53.
On to A40G C93U A106G C118U, for which the “polymerase ribozyme fitness (log ratio)” value is -3.47.
In the case of U55G G88U A97G U135G U148C, the “polymerase ribozyme fitness (log ratio)” value was no more than -4.2.
As to U4C U53A G92C C114A A120G, the “polymerase ribozyme fitness (log ratio)” value was no more than -4.2.
With A26C C96U G124A, the “polymerase ribozyme fitness (log ratio)” value is -1.67.
On to C85G A122U C123A, for which the “polymerase ribozyme fitness (log ratio)” value is -2.3.
With A21C C57A G81U C85A U139G, the “polymerase ribozyme fitness (log ratio)” value is -0.214.
Next, A41C U90G A113C: no more than -4.2; U15C G46A G59A C93A: -3.01; A16G A37U U134G: -3.68.
With A30C U53A G84A, the “polymerase ribozyme fitness (log ratio)” value was no more than -4.2.
For U56A A142U, the “polymerase ribozyme fitness (log ratio)” value was -0.643.
Regarding C75U U78C G84A, the “polymerase ribozyme fitness (log ratio)” value is -1.65.
On to A16C A20C A39U G42C C76A C95A, for which the “polymerase ribozyme fitness (log ratio)” value was no more than -4.2.
Regarding C57A U135C, the “polymerase ribozyme fitness (log ratio)” value was -1.62.
For the variant C35U C38G G86A G126A G136U, the “polymerase ribozyme fitness (log ratio)” value is no more than -4.2.
Next, A22U U56G: -0.902; A98G U104G C118U: -0.702; U31A U45A U55G C85U C95G A120G A142U: -4.06.
On to G70C G88U A91G C95A A119G U144C U148C, for which the “polymerase ribozyme fitness (log ratio)” value was no more than -4.2.
The result for U9C A66G C76G G92U C114A reads no more than -4.2; that for A17U A52C A64C G133A A138C, no more than -4.2.
Turning to U4A A19C A41U U56C G124A G143A, the “polymerase ribozyme fitness (log ratio)” value is -3.84.
In the case of A29U A41C U61A G67U G86U G92A C93A G133C, the “polymerase ribozyme fitness (log ratio)” value was no more than -4.2.
Next, G59C C79U: -3.43; U55A C57U G84A G141C: -0.559.
The result for A20U G48A G50A C76G C96G U135G reads no more than -4.2; that for A22U U127A, -3.54; that for U61G C75U U144C, -1.52.
For the variant C96A U127A, the “polymerase ribozyme fitness (log ratio)” value is -3.79.
The result for U53A C85U reads -1.4.
For G62A C85A A121U U134C A137G, the “polymerase ribozyme fitness (log ratio)” value is -3.02.
On to U6A U55A, for which the “polymerase ribozyme fitness (log ratio)” value is -1.4.
On to A49C G59A A60G A106G, for which the “polymerase ribozyme fitness (log ratio)” value was no more than -4.2.
In the case of U15G C93U, the “polymerase ribozyme fitness (log ratio)” value was -2.61.
For the variant A106C C116G, the “polymerase ribozyme fitness (log ratio)” value was -0.324.
Consider C38U A49C, for which the “polymerase ribozyme fitness (log ratio)” value is no more than -4.2.
As for G11A C35U C51U U61G C63U A64C C85G U90G G140A, the “polymerase ribozyme fitness (log ratio)” value is no more than -4.2.
Take C27U C79U C87G U90C C96U A121U U134G: the “polymerase ribozyme fitness (log ratio)” value was no more than -4.2.
With U55G C79U A91C G124C C129A A137U, the “polymerase ribozyme fitness (log ratio)” value was no more than -4.2.
Take A29C G59A G94U U102A A106G G141A: the “polymerase ribozyme fitness (log ratio)” value was no more than -4.2.
U78C C93U C99A A115C: the “polymerase ribozyme fitness (log ratio)” value is -4.13.
The result for A26U C35U C87A G124C reads no more than -4.2; that for C35U C93A A120C G126A A150U, -4.
Turning to U102A G128U, the “polymerase ribozyme fitness (log ratio)” value was -4.1.
Consider A40G U55A C76G G81A G86U C149U, for which the “polymerase ribozyme fitness (log ratio)” value was no more than -4.2.
For A49C C54U U55A A91U C108U G152A, the “polymerase ribozyme fitness (log ratio)” value was no more than -4.2.
The result for A47C A52G U77G G94U C99U reads no more than -4.2.
Regarding A21C A22U C54U A73G A89G, the “polymerase ribozyme fitness (log ratio)” value was -1.48.
C18U A60G C76U C103G G112U: the “polymerase ribozyme fitness (log ratio)” value is no more than -4.2.
Consider C10U G42C G83U A97G G124U G133C, for which the “polymerase ribozyme fitness (log ratio)” value is no more than -4.2.
Next, C14U U144G: -0.898; U82A U102G U144G: -1.48; A41C C87G G100C G126A A142C: no more than -4.2.
Regarding C85A G92U G117U, the “polymerase ribozyme fitness (log ratio)” value was -2.26.
Regarding A64G A91C, the “polymerase ribozyme fitness (log ratio)” value was no more than -4.2.
On to C5A A16C G50A C76U G86C U144G, for which the “polymerase ribozyme fitness (log ratio)” value is no more than -4.2.
As for A21C A23U A24U G92A A106G G133A, the “polymerase ribozyme fitness (log ratio)” value is no more than -4.2.
In the case of A20U G74A A137U, the “polymerase ribozyme fitness (log ratio)” value was no more than -4.2.
Consider A3C U101G C105U A138C, for which the “polymerase ribozyme fitness (log ratio)” value was -4.17.
Regarding U55A C76A C114U, the “polymerase ribozyme fitness (log ratio)” value was -3.91.
On to A24U G42A C108U, for which the “polymerase ribozyme fitness (log ratio)” value was 1.52.
Regarding U53A A98G U101G, the “polymerase ribozyme fitness (log ratio)” value is -1.25.
As for A29U U134A, the “polymerase ribozyme fitness (log ratio)” value is no more than -4.2.
With A12G C93U, the “polymerase ribozyme fitness (log ratio)” value was -1.21.
As for A12U U55A C87U A119U U127C, the “polymerase ribozyme fitness (log ratio)” value is -3.82.
For the variant A16G G83U U139G, the “polymerase ribozyme fitness (log ratio)” value is -1.17.
Turning to U6A U44G A98U A107U, the “polymerase ribozyme fitness (log ratio)” value is -1.58.
C5U U13G A20C C27G G80A C87U U148G: the “polymerase ribozyme fitness (log ratio)” value is no more than -4.2.
A26C C93A: the “polymerase ribozyme fitness (log ratio)” value was -3.21.
For C38G G71A U82G A107U, the “polymerase ribozyme fitness (log ratio)” value was no more than -4.2.
In the case of C76A U145C, the “polymerase ribozyme fitness (log ratio)” value was -0.484.
As to A17G C85U A115U C125A U144G A150C, the “polymerase ribozyme fitness (log ratio)” value is no more than -4.2.
As to G50C A66C A91U A106C A137C U148A, the “polymerase ribozyme fitness (log ratio)” value is no more than -4.2.
Regarding C79A C103G, the “polymerase ribozyme fitness (log ratio)” value was no more than -4.2.
For A24U C35A C85U C132A, the “polymerase ribozyme fitness (log ratio)” value was no more than -4.2.
On to A41C C57A C96U, for which the “polymerase ribozyme fitness (log ratio)” value is -0.533.
Regarding C10G A28U C54U C85G C116U, the “polymerase ribozyme fitness (log ratio)” value was no more than -4.2.
As to A19U A21U G94A, the “polymerase ribozyme fitness (log ratio)” value is -1.09.
On to C38U G58A U61A U134C, for which the “polymerase ribozyme fitness (log ratio)” value was -1.57.
Consider U55A A60U C118G A119C, for which the “polymerase ribozyme fitness (log ratio)” value is -0.427.
In the case of G42A C116G A150U, the “polymerase ribozyme fitness (log ratio)” value is no more than -4.2.
